From article doi:10.1101/2021.07.12.452133

Key:
[1] = biological target: MBP-tagged delVirB4_CTn4 (NH2-terminally truncated VirB4-like ATPase of the CTn4 locus, C. difficile 630) (Clostridioides difficile strain 630); experiment: SEC
[2] = biological target: MBP-tagged delVirB4_CTn4 (NH2-terminally truncated VirB4-like ATPase of the CTn4 locus, C. difficile 630) (Clostridioides difficile strain 630); experiment: negative-stain transmission electron microscopy
[3] = biological target: MBP-tagged delVirD4_CTn4 (NH2-terminally truncated VirD4-like ATPase of the CTn4 locus, C. difficile 630) (Clostridioides difficile strain 630); experiment: SEC
[4] = biological target: MBP-tagged delVirD4_CTn4 (NH2-terminally truncated VirD4-like ATPase of the CTn4 locus, C. difficile 630) (Clostridioides difficile strain 630); experiment: negative-stain transmission electron microscopy

Row | Substance | oligomerization rate [1] | stoichiometry N [1] | stoichiometry N [2] | oligomerization rate [3] | stoichiometry N [3] | stoichiometry N [4]
1 | MBP-tagged delVirB4_CTn4 (NH2-terminally truncated VirB4-like ATPase of the CTn4 locus, C. difficile 630) (domain or fragment) | 100% | > 6 monomers | 6 to 7 |  |  | 
2 | MBP-tagged delVirD4_CTn4 (NH2-terminally truncated VirD4-like ATPase of the CTn4 locus, C. difficile 630) (domain or fragment) |  |  |  | 100% | > 6 monomers | 6 to 7
